Laboratory results published in patent US20070134256A1 (US Dept. of Health and Human Services, published 2007).
Like-named read-outs stand apart in the source and are kept apart here.

Columns and labels:
[1] = target: T1, dengue type 4 virus (DENV-4), strain 814669, virions (dengue type 4 virus, UniProt P09866 280-774; P09866 114-279); assay: ELISA, virion-coated plate, Fab from ~300 µg/ml
[2] = target: T2, dengue type 3 virus (DENV-3), strain H87, virions (dengue type 3 virus, UniProt P27915 281-773; P27915 115-280); assay: ELISA, virion-coated plate, Fab from ~300 µg/ml
[3] = target: T3, dengue type 2 virus (DENV-2), prototype New Guinea C strain, virions (dengue type 2 virus, UniProt P14340 281-775; P14340 115-280); assay: ELISA, virion-coated plate, Fab from ~300 µg/ml
[4] = target: T4, dengue type 1 virus (DENV-1), Western Pacific strain, virions (dengue type 1 virus, UniProt P17763 281-775; P17763 115-280); assay: ELISA, virion-coated plate, Fab from ~300 µg/ml
[5] = target: T5, DENV-4 E glycoprotein (dengue type 4 virus, UniProt P09866 280-774); assay: radioimmunoprecipitation
T5 construct: also called vDENV-4 E product

[6] = target: T1, dengue type 4 virus (DENV-4), strain …; assay: cell-based or functional assay
[7] = target: T6, DENV-2 antigenic variant NGB-V2 (dengue type 2 virus); assay: ELISA Kd against parental DENV-2 NGB
[8] = target: T7, DENV-2 antigenic variant NGB-V1 (dengue type 2 virus); assay: ELISA Kd against parental DENV-2 NGB
[9] = target: T1, dengue type 4 virus (DENV-4), strain …; assay: ELISA Kd
[10] = target: T8, DENV-4 mutant containing Leu107Phe (dengue type 4 virus, UniProt P09866 280-774); assay: ELISA Kd
T8 construct: Mutant virus; also called mutant Leu107Phe

[11] = target: T1, dengue type 4 virus (DENV-4), strain …; assay: ELISA, virion-coated plate, Fab from ~140 µg/ml
[12] = target: T2, dengue type 3 virus (DENV-3), strain …; assay: ELISA, virion-coated plate, Fab from ~140 µg/ml
[13] = target: T3, dengue type 2 virus (DENV-2), prototype …; assay: ELISA, virion-coated plate, Fab from ~140 µg/ml
[14] = target: T4, dengue type 1 virus (DENV-1), Western …; assay: ELISA, virion-coated plate, Fab from ~140 µg/ml
[15] = target: T6, DENV-2 antigenic variant NGB-V2
[16] = target: T7, DENV-2 antigenic variant NGB-V1
[17] = target: T1, dengue type 4 virus (DENV-4), strain …; assay: cell-based or functional assay; remark: listed apart in the source
[18] = target: DENV-2 NGB-V2/DENV-4 chimera (dengue type 2 virus); assay: cell-based or functional assay
[19] = target: T6, DENV-2 antigenic variant NGB-V2; assay: cell-based or functional assay
[20] = target: WNV/DENV-4 chimera (West Nile virus); assay: cell-based or functional assay
[21] = target: chimeric DENV-2 (NGB-P)/DENV-4 (dengue type 2 virus); assay: cell-based or functional assay
[22] = target: DENV-2 New Guinea C (NGC) parent virus, mouse-adapted (dengue type 2 virus, UniProt P14340 281-775); assay: cell-based or functional assay
[23] = target: DENV-2 NGB-V1/DENV-4 chimera (dengue type 2 virus); assay: cell-based or functional assay
[24] = target: T7, DENV-2 antigenic variant NGB-V1; assay: cell-based or functional assay
[25] = target: T8, DENV-4 mutant containing Leu107Phe; assay: cell-based or functional assay
[26] = target: T1, dengue type 4 virus (DENV-4), strain …; assay: cell-based or functional assay; remark: listed apart in the source
[27] = target: T2, dengue type 3 virus (DENV-3), strain …; assay: cell-based or functional assay
[28] = target: T3, dengue type 2 virus (DENV-2), prototype …; assay: cell-based or functional assay
[29] = target: T4, dengue type 1 virus (DENV-1), Western …; assay: cell-based or functional assay
[30] = target: T1, dengue type 4 virus (DENV-4), strain …
[31] = target: T2, dengue type 3 virus (DENV-3), strain …
[32] = target: T3, dengue type 2 virus (DENV-2), prototype …
[33] = target: T4, dengue type 1 virus (DENV-1), Western …
[34] = target: DENV-2 New Guinea B (NGB) parent virus (dengue type 2 virus); assay: cell-based or functional assay
[35] = target: Japanese encephalitis virus (JEV) vaccine strain SA14-14-2 (Japanese encephalitis virus); assay: cell-based or functional assay
[36] = target: T2, dengue type 3 virus (DENV-3), strain …; assay: cell-based or functional assay; remark: listed apart in the source
[37] = target: T9, Langat virus (LGTV) strain TP 21 (Langat virus, UniProt P29837 281-776); assay: cell-based or functional assay
T9 sequence: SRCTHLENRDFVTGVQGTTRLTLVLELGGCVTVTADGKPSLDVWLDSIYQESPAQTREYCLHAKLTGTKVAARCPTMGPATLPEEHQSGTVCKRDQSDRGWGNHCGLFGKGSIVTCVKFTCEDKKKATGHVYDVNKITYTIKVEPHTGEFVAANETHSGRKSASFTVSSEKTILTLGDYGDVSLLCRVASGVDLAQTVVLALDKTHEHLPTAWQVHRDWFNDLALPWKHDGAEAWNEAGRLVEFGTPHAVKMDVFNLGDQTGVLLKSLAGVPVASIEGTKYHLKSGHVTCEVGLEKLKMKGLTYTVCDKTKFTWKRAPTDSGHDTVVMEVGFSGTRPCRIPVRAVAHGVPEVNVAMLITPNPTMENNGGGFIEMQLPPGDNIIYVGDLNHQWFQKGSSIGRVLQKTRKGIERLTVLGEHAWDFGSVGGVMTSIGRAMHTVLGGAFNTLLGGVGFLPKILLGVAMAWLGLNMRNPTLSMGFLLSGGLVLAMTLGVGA

[38] = target: DENV-1 strain Hawaii (dengue type 1 virus); assay: cell-based or functional assay
[39] = target: T2, dengue type 3 virus (DENV-3), strain …; assay: ELISA, virion-coated plate
[40] = target: T3, dengue type 2 virus (DENV-2), prototype …; assay: ELISA, virion-coated plate
[41] = target: T4, dengue type 1 virus (DENV-1), Western …; assay: ELISA, virion-coated plate
[42] = target: T5, DENV-4 E glycoprotein; assay: radioimmunoprecipitation of E expressed alone by recombinant vaccinia virus

B1: chimpanzee Fab 5A7 (Fab, V domains shown)
VH: EVQLLESGGGLVQPGGSLRLSCAASGVTFSSYWMHWVRQAPGKGLEWVSRINSDGSSTNYADSVEGRFTISRDNAKNTLYLQMNSLRAEDTAVYYCSRGGLWDWSPRRIEETKTPFDYWGQGTLVTVSS
VL: ELTQGPATLSLSPGERATLSCRAGQSLDSSLLSWYQQKPGQAPRLLMYDASTRAPGVPARFSGSGSGTDFTLTISSLQPEDFAVYYCQQHYNLPRTFGQGTKLEIKR
ELISA titer of Fab binding [1]: 3.41 log10 of reciprocal dilution
ELISA titer of Fab binding [2]: 2.51 log10 of reciprocal dilution
ELISA titer of Fab binding [3]: 2.51 log10 of reciprocal dilution
ELISA titer of Fab binding [4]: 2.51 log10 of reciprocal dilution
binding result [5]: no binding
PRNT50 titer [6]: > 200 µg/mL

B2: chimpanzee Fab 1A5 (Fab, V domains shown)
VH: EVQLLESGGGLVQPGGSRRLSCAASGFTISDNVMHWVRQAPGKGLEWVALIYSADTTHYADSVKGRFTISRDNSKNTLYLQMDSLRPEDTAVYYCAREYCTGDTCFAHFDYWGQGTLVSVSS
VL: ELQMTQSPSSVSASVGDTVTIACRASQSITNYLSWYQQKPGKAPKLLIYHASTLQSGIPSRFSGSGSGTDFTLTISSLQPDDFATYYCHYGYGTHTFGQGTKLEIKR
Affinity Reduction (fold) [7]: 80.3 fold
Affinity Reduction (fold) [8]: 1.6 fold
Kd [9]: 0.65 nM
Kd [10]: 3.07 nM
ELISA titer of Fab binding [11]: 3.8 log10 of reciprocal dilution
ELISA titer of Fab binding [12]: 3.8 log10 of reciprocal dilution
ELISA titer of Fab binding [13]: 3.8 log10 of reciprocal dilution
ELISA titer of Fab binding [14]: 4.1 log10 of reciprocal dilution
Kd [15]: 37.8 nM
Kd [16]: 0.75 nM
PRNT50 titer [17]: 4.3 µg/mL
PRNT50 titer [18]: > 70 µg/mL
PRNT50 titer [19]: > 70 µg/mL
PRNT50 titer [20]: 4.8 µg/mL
PRNT50 titer [21]: 0.64 µg/mL
PRNT50 titer [22]: 0.89 µg/mL
PRNT50 titer [23]: 31.7 µg/mL
PRNT50 titer [24]: 12 µg/mL
PRNT50 titer [25]: ~50 µg/mL
PRNT50 titer [26]: 4.23 µg/mL
PRNT50 titer [27]: 3.49 µg/mL
PRNT50 titer [28]: 0.77 µg/mL
PRNT50 titer [29]: 0.49 µg/mL

B3: humanized IgG1 1A5 (antibody, V domains shown)
VH: EVQLLESGGGLVQPGGSRRLSCAASGFTISDNVMHWVRQAPGKGLEWVALIYSADTTHYADSVKGRFTISRDNSKNTLYLQMDSLRPEDTAVYYCAREYCTGDTCFAHFDYWGQGTLVSVSS
VL: ELQMTQSPSSVSASVGDTVTIACRASQSITNYLSWYQQKPGKAPKLLIYHASTLQSGIPSRFSGSGSGTDFTLTISSLQPDDFATYYCHYGYGTHTFGQGTKLEIKR
Kd [30]: 0.82 nM
Kd [31]: 0.67 nM
Kd [32]: 0.6 nM
Kd [33]: 0.5 nM
PRNT50 titer [17]: 4.3 µg/mL
PRNT50 titer [34]: 0.95 µg/mL
PRNT50 titer [35]: 21 µg/mL
PRNT50 titer [36]: 3.2 µg/mL
PRNT50 titer [37]: 28 µg/mL
PRNT50 titer [20]: ~3.8 µg/mL
PRNT50 titer [38]: 0.48 µg/mL

B4: chimpanzee Fab 5H2 (Fab, V domains shown)
VH: EVQLLESGPGLVKPSETLSLTCTVSGGSISDFYWSWLRQSPGKGLEWIGYAHSRVSAYYNPSLKSRVTISVDTSKNQLSLRLSAVTAADTALYYCARQGTGTTGVSEDPFDLWGQGTKVIVSL
VL: ELQMTQSPSSLSASVGDRVTITCRASQDISIRLNWYQQKPGKAPKLLIYDASTLESGVPSRFSGSGSGTDFTLTISSLQPEDFATYYCQQFNSYPLTFGGGTKVEIKR
ELISA titer of Fab binding [2]: < 1 log10 of reciprocal dilution
ELISA titer of Fab binding [3]: < 1 log10 of reciprocal dilution
ELISA titer of Fab binding [4]: < 1 log10 of reciprocal dilution
ELISA titer of Fab binding [12]: < 1 log10 of reciprocal dilution
ELISA titer of Fab binding [13]: < 1 log10 of reciprocal dilution
ELISA titer of Fab binding [14]: < 1 log10 of reciprocal dilution
binding result [39]: no binding
binding result [40]: no binding
binding result [41]: no binding
binding result [42]: binds
